# Experimental data as given in patent US20060292657A1, “Phex substrates and methods using same” (priority 2003, published 2006).
# B1: human recombinant secPHEX (Homo sapiens) (protein)
# chain: SLQAKQEYCLKPECIEAAAAILSKVNLSVDPCDNFFRFACDGWISNNPIPEDMPSYGVYPWLRHNVDLKLKELLEKSISRRRDTEAIQKAKILYSSCMNEKAIEKADAKPLLHILRHSPFRWPVLESNIGPEGVWSERKFSLLQTLATFRGQYSNSVFIRLYVSPDDKASNEHILKLDQATLSLAVREDYLDNSTEAKSYRDALYKFMVDTAVLLGANSSRAEHDMKSVLRLEIKIAEIMIPHENRTSEAMYNKMNISELSAMIPQFDWLGYIKKVIDTRLYPHLKDISPSENVVVRVPQYFKDLFRILGSERKKTIANYLVWRMVYSRIPNLSRRFQYRWLEFSRVIQGTTTLLPQWDKCVNFIESALPYVVGKMFVDVYFQEDKKEMMEELVEGVRWAFIDMLEKENEWMDAGTKRKAKEKARAVLAKVGYPEFIMNDTHVNEDLKAIKFSEADYFGNVLQTRKYLAQSDFFWLRKAVPKTEWFTNPTTVNAFYSASTNQIRFPAGELQKPFFWGTEYPRSLSYGAIGVIVGHEFTHGFDNNGRKYDKNGNLDPWWSTESEEKFKEKTKCMINQYSNYYWKKAGLNVKGKRTLGENIADNGGLREAFRAYRKWINDRRQGLEEPLLPGITFTNNQLFFLSYAHVRCNSYRPEAAREQVQIGAHSPPQFRVNGAISNFEEFQKAFNCPPNSTMNRGMDSCRLW
# notes: pure soluble form of PHEX (secPHEX); made in house
# Legend:
# Assay in all cases: Kinetic parameters for hydrolysis of internally quenched fluorogenic peptides by secPHEX
# Format in all cases: biochemical, human
# Conditions in all cases: other: 37° C., 10 mM Bis-Tris buffer pH 5.5, 150 mM NaCl
# [1] = substrate: CC(C)[C@H](NC(=O)[C@H](CC(=O)O)NC(=O)[C@H](Cc1ccc(O)cc1)NC(=O)CNC(=O)[C@H](CC(N)=O)NC(=O)c1ccccc1N)C(=O)N[C@@H](Cc1ccc(O)cc1)C(=O)N[C@@H](Cc1c[nH]cn1)C(=O)N[C@@H](CCC(N)=O)C(=O)NCCNc1ccc([N+](=O)[O-])cc1[N+](=O)[O-]
# Procedure: (§1) The human recombinant secPHEX was obtained following the procedure previously described (17, WO 00/50580). Purified secPHEX concentration was determined using the Bradford method (DC protein assay kit; Bio-Rad, Mississauga, ON, Canada). Membrane-bound recombinant human PHEX was expressed in LLC-PK1 cells (17, (WO 00/50580)) and membranes were prepared essentially as described by Guo et al. (34). Briefly, transfected cells resuspended in lysis buffer (150 mM NaCl, 20 mM Tris.HCl, pH 7.6) were disrupted by sonication. Cell debris were removed by centrifugation at 300 g for 15 min at 4 °C. Membranes were collected by centrifugation at 30,000 g for 50 min and solubilized for 2h with 1% n-dodecyl-β-D-maltoside in lysis buffer. Insoluble material was pelleted by centrifugation at 10,000 g for 15 min and protein concentrations of the supernatant determined using the Bradford method described above. PHEX amounts were evaluated by immunoblotting as described previously (17). NEP expression and purification were performed as described previously (36).
# (§2) The hydrolysis of the IQFPs, at 37° C., in 10 mM Bit-Tris buffer pH 5.5 (0.35 to 1.0 ml final volume) containing 150 mM NaCl, was continuously followed measuring the fluorescence at γem=420 nm and γex=320 nm in a Hitachi F-2000™ spectrofluorometer. The cuvefte containing the buffer and the substrate was placed in a thermostatically controlled cell compartment for 5 min before the addition of the enzyme and the increase in fluorescence with time was continuously recorded for 5-10 min. The enzyme concentration for initial rate determination was chosen at a level intended to hydrolyze less than 5% of the substrate present. The slope was converted into micromoles of substrate hydrolyzed per min based on a calibration curve obtained from complete hydrolysis of each peptide. The inner-filter effect was corrected using an empirical equation as previously described (43). The kinetic parameters Km and kcat were calculated by the non-linear regression data analysis Grafit program (42). The kcat/Km values were calculated as the ratio of these two determined parameters. The apparent second order rate constant kcat/Km (*kIt/Km) was determined under pseudo first-order conditions, where [S]<<Km. These determinations were performed in two different substrate concentrations and the errors were less than 5% for any obtained value.
# (§3) To determine the position of cleavage in peptides of the IQFPs combinatorial libraries, the products resulting from hydrolysis by secPHEX were submitted to N-terminal amino acid sequencing in a PPSQ-23protein sequencer (Shimadzu Tokyo, Japan). The scissile bonds in the IQFPs secPHEX substrates derived from PTHrP107-139, FGF-23and MEPE were determined by amino acid sequencing and by MALDI-TOF™ mass spectrometry (TofSpec-E™, Micromass, Manchester, U.K.) after isolation of the fragments resulting from the hydrolysis by secPHEX by analytical HPLC.
# (§4) The assays were performed at 37° C., in 10 mM Bis-Tris buffer pH 5.5, containing 150 mM NaCl. Measurements were made as described under the heading “Experimental Procedures” above. Cleavage sites are indicated as arrows (↓). The standard deviations of the kinetic constants were less than 5%.
# (§5) The assays were performed at 37° C., in 10 mM Bis-Tris buffer pH 5.5, containing 150 mM NaCl. Measurements were made as described under the heading “Experimental Procedures” above. Cleavage sites are indicated by arrows (↓). The standard deviations of the kinetic constants were less than 5%.
# (§6) The assays were. performed at 37° C., in 10 mM Bis-Tris buffer pH 5.5, containing 150 mM NaCl. Measurements were made as described under the heading “Experimental Procedures” above. Cleavage sites are indicated by arrows (↓). The standard deviations of the kinetic constants were less than 5%.
# (§7) The assays were performed at 37° C., in 10 mM Bis-Tris buffer pH 5.5, containing 150 mM NaCl. Measurements were made as described under “Experimental Procedures”. […]
# [2] = substrate: CC(C)C[C@H](NC(=O)[C@H](Cc1c[nH]cn1)NC(=O)[C@H](CC(=O)O)NC(=O)c1ccccc1N)C(=O)N[C@@H](CO)C(=O)N[C@@H](CC(=O)O)C(=O)N[C@H](C(=O)N[C@@H](CO)C(=O)N[C@H](C(=O)N[C@@H](CCC(N)=O)C(=O)NCCNc1ccc([N+](=O)[O-])cc1[N+](=O)[O-])[C@@H](C)O)[C@@H](C)O
# Procedure: as §1, §2, §3, §4, §5, §6, §7
# [3] = substrate: NC(=O)CC[C@H](NC(=O)[C@H](Cc1ccc(O)cc1)NC(=O)[C@H](CC(=O)O)NC(=O)[C@H](CO)NC(=O)[C@H](Cc1ccccc1)NC(=O)CNC(=O)c1ccccc1N)C(=O)NCCNc1ccc([N+](=O)[O-])cc1[N+](=O)[O-]
# Procedure: as §1, §2, §3, §4, §5, §6, §7
# [4] = substrate: C[C@H](NC(=O)[C@H](CO)NC(=O)c1ccccc1N)C(=O)N[C@@H](CCC(=O)O)C(=O)N[C@@H](CC(=O)O)C(=O)N[C@@H](CC(N)=O)C(=O)N[C@@H](CO)C(=O)N1CCC[C@H]1C(=O)N[C@@H](CCC(N)=O)C(=O)NCCNc1ccc([N+](=O)[O-])cc1[N+](=O)[O-]
# Procedure: as §1, §2, §3, §4, §5, §6, §7
# [5] = substrate: CC(C)C[C@H](NC(=O)[C@H](Cc1c[nH]c2ccccc12)NC(=O)[C@H](C)NC(=O)c1ccccc1N)C(=O)N[C@@H](CC(=O)O)C(=O)N[C@@H](CO)C(=O)NCC(=O)N[C@H](C(=O)N[C@@H](CCC(N)=O)C(=O)NCCNc1ccc([N+](=O)[O-])cc1[N+](=O)[O-])C(C)C
# Procedure: as §1, §2, §3, §4, §5, §6, §7
protein,measurement,setting,value
B1,Km,[1],9.0 µM
same,kcat,[1],0.01 s⁻¹
same,kcat/Km,[1],1100 M⁻¹ s⁻¹
same,Km,[2],1.3 µM
same,kcat,[2],0.1 s⁻¹
same,kcat/Km,[2],77000 M⁻¹ s⁻¹
same,Km,[3],13.3 µM
same,kcat,[3],0.6 s⁻¹
same,kcat/Km,[3],45100 M⁻¹ s⁻¹
same,Km,[4],22.0 µM
same,kcat,[4],0.3 s⁻¹
same,kcat/Km,[4],13600 M⁻¹ s⁻¹
same,Km,[5],1.5 µM
same,kcat,[5],0.04 s⁻¹
same,kcat/Km,[5],26700 M⁻¹ s⁻¹
